Test results: patent publication US20140087995A1 (published 2014)
Numbered stars: 1 amine (or outer) side, 2 acyl side, 3 side chain; on linkers, the order of the positions; unused ones are H or OH. Bridge positions count the residues as written; N and C are the ends. Side chains are listed from the residue outwards. Ends that are not written are not given here. * marks the point of attachment. C20 diacid = O=C(O)CCCCCCCCCCCCCCCCCCC(=O)*; γGlu = O=C(O)[C@H](CCC(=O)[*:2])N[*:1]; AEEA = NCCOCCOCC(=O)O

T1: human amylin receptor (amylin 3(a) receptor: human calcitonin receptor coexpressed with RAMP-3) (human, UniProt P30988 25-474; O60896 24-148)
T1 sequence (looked up) 1: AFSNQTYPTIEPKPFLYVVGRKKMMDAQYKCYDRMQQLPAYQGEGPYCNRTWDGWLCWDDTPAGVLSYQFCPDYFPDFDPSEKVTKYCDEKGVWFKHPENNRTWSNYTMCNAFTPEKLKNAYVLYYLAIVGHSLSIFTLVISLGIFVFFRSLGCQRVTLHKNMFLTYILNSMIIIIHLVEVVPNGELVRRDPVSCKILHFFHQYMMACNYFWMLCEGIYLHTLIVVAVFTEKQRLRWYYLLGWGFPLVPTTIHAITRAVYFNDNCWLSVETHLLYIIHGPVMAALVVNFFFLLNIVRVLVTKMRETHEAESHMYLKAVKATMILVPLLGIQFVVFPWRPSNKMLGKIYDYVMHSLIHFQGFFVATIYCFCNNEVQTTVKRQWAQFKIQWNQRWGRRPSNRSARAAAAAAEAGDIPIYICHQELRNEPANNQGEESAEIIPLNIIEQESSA
T1 sequence (looked up) 2: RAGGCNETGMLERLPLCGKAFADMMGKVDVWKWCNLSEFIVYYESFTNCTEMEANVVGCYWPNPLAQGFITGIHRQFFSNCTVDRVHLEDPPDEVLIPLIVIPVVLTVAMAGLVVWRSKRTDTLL

T2: human calcitonin receptor (human, UniProt P30988 25-474)
T2 sequence (looked up): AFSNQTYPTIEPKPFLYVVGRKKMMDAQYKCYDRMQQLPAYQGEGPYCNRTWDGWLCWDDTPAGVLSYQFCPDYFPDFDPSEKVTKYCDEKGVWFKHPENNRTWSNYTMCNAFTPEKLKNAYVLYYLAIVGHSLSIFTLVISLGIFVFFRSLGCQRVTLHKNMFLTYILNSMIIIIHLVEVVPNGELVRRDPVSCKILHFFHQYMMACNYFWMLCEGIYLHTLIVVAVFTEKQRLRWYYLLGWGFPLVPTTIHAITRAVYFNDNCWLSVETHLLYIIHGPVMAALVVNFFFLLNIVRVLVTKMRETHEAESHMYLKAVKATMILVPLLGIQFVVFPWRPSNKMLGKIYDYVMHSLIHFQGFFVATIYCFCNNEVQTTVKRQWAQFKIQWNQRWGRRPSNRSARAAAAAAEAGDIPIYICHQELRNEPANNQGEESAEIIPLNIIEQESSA


How the values were obtained:
[1] = target: T1, human amylin receptor (amylin 3(a) …); test: cell-based or functional assay
[2] = target: T2, human calcitonin receptor; test: cell-based or functional assay

Binder	hAmylin-R funct. EC50 (pM) [1] [pM]	Ratio hCT/hAmylin funct. [2]	hCTR funct. EC50 (pM) [2] [pM]
K([AEEA-AEEA-γGlu-C20 diacid])CNTATCATQRLANFLRHSSPNFGAIPSSTNVGPNTY-NH2 (disulfide 2-7; N-terminus assumed; SMILES CC[C@H](C)[C@H](NC(=O)[C@H](C)NC(=O)CNC(=O)[C@H](Cc1ccccc1)NC(=O)[C@H](CC(N)=O)NC(=O)[C@@H]1CCCN1C(=O)[C@H](CO)NC(=O)[C@H](CO)NC(=O)[C@H](Cc1c[nH]cn1)NC(=O)[C@H](CCCNC(=N)N)NC(=O)[C@H](CC(C)C)NC(=O)[C@H](Cc1ccccc1)NC(=O)[C@H](CC(N)=O)NC(=O)[C@H](C)NC(=O)[C@H](CC(C)C)NC(=O)[C@H](CCCNC(=N)N)NC(=O)[C@H](CCC(N)=O)NC(=O)[C@@H](NC(=O)[C@H](C)NC(=O)[C@@H]1CSSC[C@H](NC(=O)[C@@H](N)CCCCNC(=O)COCCOCCNC(=O)COCCOCCNC(=O)CC[C@H](NC(=O)CCCCCCCCCCCCCCCCCCC(=O)O)C(=O)O)C(=O)N[C@@H](CC(N)=O)C(=O)N[C@@H]([C@@H](C)O)C(=O)N[C@@H](C)C(=O)N[C@@H]([C@@H](C)O)C(=O)N1)[C@@H](C)O)C(=O)N1CCC[C@H]1C(=O)N[C@@H](CO)C(=O)N[C@@H](CO)C(=O)N[C@H](C(=O)N[C@@H](CC(N)=O)C(=O)N[C@H](C(=O)NCC(=O)N1CCC[C@H]1C(=O)N[C@@H](CC(N)=O)C(=O)N[C@H](C(=O)N[C@@H](Cc1ccc(O)cc1)C(N)=O)[C@@H](C)O)C(C)C)[C@@H](C)O, also called compound 98)	84	19.5	1630
K([AEEA-γGlu-C20 diacid])CNTATCATQRLANFLRHSSPNFGAIPSSTNVGRNTY-NH2 (disulfide 2-7; N-terminus assumed; SMILES CC[C@H](C)[C@H](NC(=O)[C@H](C)NC(=O)CNC(=O)[C@H](Cc1ccccc1)NC(=O)[C@H](CC(N)=O)NC(=O)[C@@H]1CCCN1C(=O)[C@H](CO)NC(=O)[C@H](CO)NC(=O)[C@H](Cc1c[nH]cn1)NC(=O)[C@H](CCCNC(=N)N)NC(=O)[C@H](CC(C)C)NC(=O)[C@H](Cc1ccccc1)NC(=O)[C@H](CC(N)=O)NC(=O)[C@H](C)NC(=O)[C@H](CC(C)C)NC(=O)[C@H](CCCNC(=N)N)NC(=O)[C@H](CCC(N)=O)NC(=O)[C@@H](NC(=O)[C@H](C)NC(=O)[C@@H]1CSSC[C@H](NC(=O)[C@@H](N)CCCCNC(=O)COCCOCCNC(=O)CC[C@H](NC(=O)CCCCCCCCCCCCCCCCCCC(=O)O)C(=O)O)C(=O)N[C@@H](CC(N)=O)C(=O)N[C@@H]([C@@H](C)O)C(=O)N[C@@H](C)C(=O)N[C@@H]([C@@H](C)O)C(=O)N1)[C@@H](C)O)C(=O)N1CCC[C@H]1C(=O)N[C@@H](CO)C(=O)N[C@@H](CO)C(=O)N[C@H](C(=O)N[C@@H](CC(N)=O)C(=O)N[C@H](C(=O)NCC(=O)N[C@@H](CCCNC(=N)N)C(=O)N[C@@H](CC(N)=O)C(=O)N[C@H](C(=O)N[C@@H](Cc1ccc(O)cc1)C(N)=O)[C@@H](C)O)C(C)C)[C@@H](C)O, also called compound 78)	316	–	8160
K([AEEA-γGlu-C20 diacid])CNTATCATQRLAHFLRHSSPNFGAIPSSTNVGRNTY-NH2 (disulfide 2-7; N-terminus assumed; SMILES CC[C@H](C)[C@H](NC(=O)[C@H](C)NC(=O)CNC(=O)[C@H](Cc1ccccc1)NC(=O)[C@H](CC(N)=O)NC(=O)[C@@H]1CCCN1C(=O)[C@H](CO)NC(=O)[C@H](CO)NC(=O)[C@H](Cc1c[nH]cn1)NC(=O)[C@H](CCCNC(=N)N)NC(=O)[C@H](CC(C)C)NC(=O)[C@H](Cc1ccccc1)NC(=O)[C@H](Cc1c[nH]cn1)NC(=O)[C@H](C)NC(=O)[C@H](CC(C)C)NC(=O)[C@H](CCCNC(=N)N)NC(=O)[C@H](CCC(N)=O)NC(=O)[C@@H](NC(=O)[C@H](C)NC(=O)[C@@H]1CSSC[C@H](NC(=O)[C@@H](N)CCCCNC(=O)COCCOCCNC(=O)CC[C@H](NC(=O)CCCCCCCCCCCCCCCCCCC(=O)O)C(=O)O)C(=O)N[C@@H](CC(N)=O)C(=O)N[C@@H]([C@@H](C)O)C(=O)N[C@@H](C)C(=O)N[C@@H]([C@@H](C)O)C(=O)N1)[C@@H](C)O)C(=O)N1CCC[C@H]1C(=O)N[C@@H](CO)C(=O)N[C@@H](CO)C(=O)N[C@H](C(=O)N[C@@H](CC(N)=O)C(=O)N[C@H](C(=O)NCC(=O)N[C@@H](CCCNC(=N)N)C(=O)N[C@@H](CC(N)=O)C(=O)N[C@H](C(=O)N[C@@H](Cc1ccc(O)cc1)C(N)=O)[C@@H](C)O)C(C)C)[C@@H](C)O, also called compound 84)	169	–	5490

The next lines start with the values.

hAmylin-R funct. EC50 (pM) [1] [pM]	Ratio hCT/hAmylin funct. [2]	hCTR funct. EC50 (pM) [2] [pM]	Binder
181	21	3800	K([AEEA-AEEA-γGlu-C20 diacid])CNTATCATQRLANFLRHSSPNFGAIPSSTPVGSNTY-NH2 (disulfide 2-7; N-terminus assumed; SMILES CC[C@H](C)[C@H](NC(=O)[C@H](C)NC(=O)CNC(=O)[C@H](Cc1ccccc1)NC(=O)[C@H](CC(N)=O)NC(=O)[C@@H]1CCCN1C(=O)[C@H](CO)NC(=O)[C@H](CO)NC(=O)[C@H](Cc1c[nH]cn1)NC(=O)[C@H](CCCNC(=N)N)NC(=O)[C@H](CC(C)C)NC(=O)[C@H](Cc1ccccc1)NC(=O)[C@H](CC(N)=O)NC(=O)[C@H](C)NC(=O)[C@H](CC(C)C)NC(=O)[C@H](CCCNC(=N)N)NC(=O)[C@H](CCC(N)=O)NC(=O)[C@@H](NC(=O)[C@H](C)NC(=O)[C@@H]1CSSC[C@H](NC(=O)[C@@H](N)CCCCNC(=O)COCCOCCNC(=O)COCCOCCNC(=O)CC[C@H](NC(=O)CCCCCCCCCCCCCCCCCCC(=O)O)C(=O)O)C(=O)N[C@@H](CC(N)=O)C(=O)N[C@@H]([C@@H](C)O)C(=O)N[C@@H](C)C(=O)N[C@@H]([C@@H](C)O)C(=O)N1)[C@@H](C)O)C(=O)N1CCC[C@H]1C(=O)N[C@@H](CO)C(=O)N[C@@H](CO)C(=O)N[C@H](C(=O)N1CCC[C@H]1C(=O)N[C@H](C(=O)NCC(=O)N[C@@H](CO)C(=O)N[C@@H](CC(N)=O)C(=O)N[C@H](C(=O)N[C@@H](Cc1ccc(O)cc1)C(N)=O)[C@@H](C)O)C(C)C)[C@@H](C)O, also called compound 96)
139	15.4	2140	K([AEEA-γGlu-C20 diacid])CNTATCATQRLAHFLRHSSPNFGAIPSSTNVGHNTY-NH2 (disulfide 2-7; N-terminus assumed; SMILES CC[C@H](C)[C@H](NC(=O)[C@H](C)NC(=O)CNC(=O)[C@H](Cc1ccccc1)NC(=O)[C@H](CC(N)=O)NC(=O)[C@@H]1CCCN1C(=O)[C@H](CO)NC(=O)[C@H](CO)NC(=O)[C@H](Cc1c[nH]cn1)NC(=O)[C@H](CCCNC(=N)N)NC(=O)[C@H](CC(C)C)NC(=O)[C@H](Cc1ccccc1)NC(=O)[C@H](Cc1c[nH]cn1)NC(=O)[C@H](C)NC(=O)[C@H](CC(C)C)NC(=O)[C@H](CCCNC(=N)N)NC(=O)[C@H](CCC(N)=O)NC(=O)[C@@H](NC(=O)[C@H](C)NC(=O)[C@@H]1CSSC[C@H](NC(=O)[C@@H](N)CCCCNC(=O)COCCOCCNC(=O)CC[C@H](NC(=O)CCCCCCCCCCCCCCCCCCC(=O)O)C(=O)O)C(=O)N[C@@H](CC(N)=O)C(=O)N[C@@H]([C@@H](C)O)C(=O)N[C@@H](C)C(=O)N[C@@H]([C@@H](C)O)C(=O)N1)[C@@H](C)O)C(=O)N1CCC[C@H]1C(=O)N[C@@H](CO)C(=O)N[C@@H](CO)C(=O)N[C@H](C(=O)N[C@@H](CC(N)=O)C(=O)N[C@H](C(=O)NCC(=O)N[C@@H](Cc1c[nH]cn1)C(=O)N[C@@H](CC(N)=O)C(=O)N[C@H](C(=O)N[C@@H](Cc1ccc(O)cc1)C(N)=O)[C@@H](C)O)C(C)C)[C@@H](C)O, also called compound 80)
215	–	12700	K([AEEA-γGlu-C20 diacid])CNTATCATQRLARFLRHSSPNFGAIPSSTNVGSNTY-NH2 (disulfide 2-7; N-terminus assumed; SMILES CC[C@H](C)[C@H](NC(=O)[C@H](C)NC(=O)CNC(=O)[C@H](Cc1ccccc1)NC(=O)[C@H](CC(N)=O)NC(=O)[C@@H]1CCCN1C(=O)[C@H](CO)NC(=O)[C@H](CO)NC(=O)[C@H](Cc1c[nH]cn1)NC(=O)[C@H](CCCNC(=N)N)NC(=O)[C@H](CC(C)C)NC(=O)[C@H](Cc1ccccc1)NC(=O)[C@H](CCCNC(=N)N)NC(=O)[C@H](C)NC(=O)[C@H](CC(C)C)NC(=O)[C@H](CCCNC(=N)N)NC(=O)[C@H](CCC(N)=O)NC(=O)[C@@H](NC(=O)[C@H](C)NC(=O)[C@@H]1CSSC[C@H](NC(=O)[C@@H](N)CCCCNC(=O)COCCOCCNC(=O)CC[C@H](NC(=O)CCCCCCCCCCCCCCCCCCC(=O)O)C(=O)O)C(=O)N[C@@H](CC(N)=O)C(=O)N[C@@H]([C@@H](C)O)C(=O)N[C@@H](C)C(=O)N[C@@H]([C@@H](C)O)C(=O)N1)[C@@H](C)O)C(=O)N1CCC[C@H]1C(=O)N[C@@H](CO)C(=O)N[C@@H](CO)C(=O)N[C@H](C(=O)N[C@@H](CC(N)=O)C(=O)N[C@H](C(=O)NCC(=O)N[C@@H](CO)C(=O)N[C@@H](CC(N)=O)C(=O)N[C@H](C(=O)N[C@@H](Cc1ccc(O)cc1)C(N)=O)[C@@H](C)O)C(C)C)[C@@H](C)O, also called compound 82)
